Each sequence was assayed on Escherichia coli TOP10 (assay: shrunken log2 fold change of peptide-encoding DNA abundance (4.5 h post-induction vs induction); higher = less antimicrobial activity (less host growth inhibition)). Settings: time post-induction: 4.5 h; library: site-saturation at positions 5, 18, 19, 20.
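Further: peptides expressed intracellularly from a pBAD plasmid library in pooled LB shake-flask culture, induced with 0.3% L-arabinose, DNA abundance read by NGS, three biological replicates, DESeq2 with apeglm shrinkage.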

| Sequence | shrunken log2 fold change |
| --- | --- |
| RRIRVRPPRLPRPRPRPHKYPRP | -0.725 |
| RRIRGRPPRLPRPRPRPQAHPRP | 0.441 |
| RRIRSRPPRLPRPRPRPGVGPRP | 0.617 |
| RRIRTRPPRLPRPRPRPKRNPRP | 0.366 |
| RRIRLRPPRLPRPRPRPFYYPRP | -0.666 |
| RRIRERPPRLPRPRPRPDYAPRP | -0.0187 |
| RRIRERPPRLPRPRPRPFLKPRP | -0.0233 |
| RRIRNRPPRLPRPRPRPSLMPRP | 0.0538 |
| RRIRLRPPRLPRPRPRPLNDPRP | -0.0903 |
| RRIRYRPPRLPRPRPRPAMAPRP | 0.0187 |
| RRIRTRPPRLPRPRPRPTQEPRP | -0.0182 |
| RRIRGRPPRLPRPRPRPWGSPRP | 0.268 |
| RRIRYRPPRLPRPRPRPQHQPRP | -0.304 |
| RRIRQRPPRLPRPRPRPEAKPRP | 0.0428 |
| RRIRIRPPRLPRPRPRPVGGPRP | 0.0792 |
| RRIRTRPPRLPRPRPRPGKHPRP | -0.803 |
| RRIRCRPPRLPRPRPRPVYYPRP | -0.363 |
| RRIRPRPPRLPRPRPRPFYRPRP | 0.0278 |
| RRIRDRPPRLPRPRPRPHDSPRP | -0.00201 |
| RRIRMRPPRLPRPRPRPNESPRP | 0.923 |
| RRIRDRPPRLPRPRPRPMVDPRP | -0.0109 |
| RRIRLRPPRLPRPRPRPEWIPRP | 0.00477 |
| RRIRDRPPRLPRPRPRPYHSPRP | -0.198 |
| RRIRMRPPRLPRPRPRPNLMPRP | -0.126 |
| RRIRLRPPRLPRPRPRPCDWPRP | 0.201 |

| Sequence | shrunken log2 fold change |
| --- | --- |
| RRIRTRPPRLPRPRPRPPHPPRP | 0.255 |
| RRIRERPPRLPRPRPRPYFNPRP | -0.583 |
| RRIRRRPPRLPRPRPRPGDHPRP | 0.0619 |
| RRIRARPPRLPRPRPRPKCMPRP | 0.0351 |
| RRIRFRPPRLPRPRPRPEASPRP | 0.0218 |
| RRIRCRPPRLPRPRPRPPTKPRP | 0.108 |
| RRIRYRPPRLPRPRPRPYMQPRP | -0.117 |
| RRIRNRPPRLPRPRPRPYWHPRP | -0.0277 |
| RRIRQRPPRLPRPRPRPVVYPRP | 0.12 |
| RRIRFRPPRLPRPRPRPLQQPRP | -0.0115 |
| RRIRHRPPRLPRPRPRPWCAPRP | -0.145 |
| RRIRMRPPRLPRPRPRPYGNPRP | 0.081 |
| RRIRMRPPRLPRPRPRPGKFPRP | 0.0419 |
| RRIRHRPPRLPRPRPRPGGGPRP | 0.684 |
| RRIRARPPRLPRPRPRPLWFPRP | 0.145 |
| RRIRCRPPRLPRPRPRPEFLPRP | -0.091 |
| RRIRMRPPRLPRPRPRPLKNPRP | -0.0484 |
| RRIRFRPPRLPRPRPRPSARPRP | 0.0874 |
| RRIRWRPPRLPRPRPRPLMWPRP | 0.173 |
| RRIRVRPPRLPRPRPRPWAKPRP | -0.00459 |
| RRIRNRPPRLPRPRPRPANPPRP | 0.0813 |
| RRIRKRPPRLPRPRPRPSQHPRP | 0.109 |
| RRIRGRPPRLPRPRPRPGIMPRP | 0.374 |
| RRIRSRPPRLPRPRPRPSWGPRP | -0.114 |
| RRIRTRPPRLPRPRPRPGGQPRP | 0.585 |

| Sequence | shrunken log2 fold change |
| --- | --- |
| RRIRTRPPRLPRPRPRPMPVPRP | 0.0572 |
| RRIRQRPPRLPRPRPRPQLCPRP | -0.0247 |
| RRIRIRPPRLPRPRPRPQAMPRP | -0.0316 |
| RRIRSRPPRLPRPRPRPMFKPRP | -0.407 |
| RRIRHRPPRLPRPRPRPVMDPRP | 0.153 |
| RRIRVRPPRLPRPRPRPYFQPRP | -0.649 |
| RRIRTRPPRLPRPRPRPANFPRP | -0.234 |
| RRIRSRPPRLPRPRPRPVKPPRP | 0.132 |
| RRIRRRPPRLPRPRPRPTKDPRP | 0.209 |
| RRIRLRPPRLPRPRPRPKKCPRP | -0.198 |
| RRIRIRPPRLPRPRPRPYLCPRP | -0.0937 |
| RRIRSRPPRLPRPRPRPFQYPRP | -0.177 |
| RRIRGRPPRLPRPRPRPGWYPRP | -0.0318 |
| RRIRNRPPRLPRPRPRPTGKPRP | -0.0851 |
| RRIRWRPPRLPRPRPRPGYRPRP | 0.0673 |
| RRIRARPPRLPRPRPRPYIFPRP | -0.277 |
| RRIRTRPPRLPRPRPRPKICPRP | -0.292 |
| RRIRERPPRLPRPRPRPCGVPRP | 0.0484 |
| RRIRCRPPRLPRPRPRPQVSPRP | -0.0343 |
| RRIRSRPPRLPRPRPRPKPQPRP | 0.524 |
| RRIRYRPPRLPRPRPRPQMSPRP | -0.0435 |
| RRIRIRPPRLPRPRPRPTKFPRP | -0.164 |
| RRIRPRPPRLPRPRPRPDLYPRP | -0.153 |
| RRIRWRPPRLPRPRPRPYYYPRP | -0.473 |
| RRIRIRPPRLPRPRPRPHPRPRP | 0.192 |
